This is an account of results in the DeepSol protein solubility set.

A short description of this series: soluble on expression in E. coli; label from the status in PepcDB or PDB records.
Consider “MNDMSDWKPKRFWKQAAVAETAEGYAVELDGRPVRTPAKAPLLLPTRALAEAIAAEWDAQESEVDPINMPFTRTANAAIDKVRIQQAEVADMLAAYGDSDLLCYRADSPAELVELQAQTWDPALDWAAETLGVRLRPVQGVMHQPQPASAIETLTRKVHALNPFQLAAFHDLVSLSGSLVLGFAAALNWRKADEIWQISRLDETWQEEQWGPDDEARALAAVKRAAFLHAKAAYDISTLEHHHHHH”, for which the “soluble on expression in E. coli” value is on record as “not soluble”.
For “MGSDKIHHHHHHMRLTIHHTTRYRFDEPVSFGLQQLRKTPKTNTNQQVVEWQTRIIGGQKEVSFDDHHHNVTELISFEPGVTELELVSEGVVELTDTHGVVGRHRGPSPLWLYARPTVLTEARAGVRELIRDLDDSNPVDMLHQLSARIREAITYQIGVSELGWSAEDAIQSAHGVCQDHAHVFIACARKLGLPARYVSGYLMLDDRTTQDAMHAWAEAHVEGLGWVGFDVSNGISPDARYVRVATGLDYSDAAPVSGTRIGGAGEALDVQIEVAQQ”, the “soluble on expression in E. coli” value is on record as “not soluble”.
Turning to “MGFADFFKNFKINKLRTAPSKEEQPSHWVKCPKCYALMYHKEVFSKYSVCLKCHYHFRMKAAERIEFLCDVGSFEEFDKHLRPNDPLNFVDKESYKQRIKKYEKRTNRPSSVISGEAKINRMPLQIVVFDFSFMGGSLGSVEGEKIVRAINRAVAKREALLIVSASGGARMQESTYSLMQMAKTSAALNRLSEAKLPFISLLSDPTYGGVSASFAFLGDLIIAEPGAMIGFAGPRVIKQTIGADLPEGFQTAEFLLEHGLIDMIVHRKDLKKTLSDLIAMMTHKTSKIFLEHHHHHH”, the “soluble on expression in E. coli” value is listed as “soluble”.
Turning to “MATLDVNPELYQAQLADKIARLKAMFVDYSMPELEVFESPVANYRMRAEFRIWHEGDDMYYIMFNQETREKYRVDQFPAASRLINDLMPLLMDAMKGSPILRHKLFQVDFLSTLSGEILVSLLYHRQLSEEWITAAQALKQRLNDEGFNLNLIGRARKMKVVLDRDYVVENLQVNGQPYVYKQVENSFTQPNAKVAEKMLEWAVDCTQESKGDLLELYCGNGNFSLALAQNFERVLATELAKPSVEAAQFNIAANQIGNVQIIRMSAEEFTQAMEGKREFNRLKDAGVDLQSYRCNTIFVDPPRSGMDIDTCKMVQGYERILYISCNPETLQENLQVLGETHQVVRFALFDQFPYTHHMEAGVMLERKK”, the “soluble on expression in E. coli” value is listed as “not soluble”.
For “MNIISQNTAFGGMQGVFSHQSETLKSEMTFAVYVPPKAIHEPCPVVWYLSGLTCTHANVMEKGEYRRMASELGLVVVCPDTSPRGNDVPDELTNWQMGKGAGFYLDATEEPWSEHYQMYSYVTEELPALIGQHFRADMSRQSIFGHSMGGHGAMTIALKNPERFKSCSAFAPIVAPSSADWSEPALEKYLGADRAAWRRYDACSLVEDGARFPEFLIDQGKADSFLEKGLRPWLFEEAIKGTDIGLTLRMHDRYDHSYYFISTFMDDHLKWHAERLG”, the “soluble on expression in E. coli” value is listed as “not soluble”.
Turning to “MSFCSFFGGEVFQNHFEPGVYVCAKCSYELFSSHSKYAHSSPWPAFTETIHPDSVTKCPEKNRPEALKVSCGKCGNGLGHEFLNDGPKRGQSRFCIFSSSLKFVPKGKEAAASQGHLEHHHHHH”, the “soluble on expression in E. coli” value was “soluble”.
Turning to “MKYNATKAISIAPPTIPTVNPTINEVFSFELLELELEEEEDKLLSCESDCFAQYVDGHLSHVNEVITQYSPEAQTGHDAVESQTTHPSLPLVAEVEEVAVLDKDELAEALEELDIFCLIFRKRT”, the “soluble on expression in E. coli” value is reported as “soluble”.
As for “MAGAMIEARGLVKRFVSGRIRRRVVEALKGVSFSVYEGEIYSFLGPNGAGKTTTVRILSTLLDPDGGEARVAGFDVVKERWEVRKRIGVMLSVERGFYWKLTGRENLYYFGRIYGIPQGELKSRIKEVLDLVGLTDLGGADKPFEEMSLGMKARLGLARVLLKDPEVLILDEPTLGLDPASARTIRGVIRSLASEGRTIFITTHNMVEAEMISDRVGIIIGGRIAMEGTPDELKRRVFSSINLEFRVKASGHAAKKFFYDVKGEYGNRIVGGVTFSDGILTFRVSVNRDEPAEPIIDRITRLAYQYRFKILEIKALEPSLEDVFVAVSESGEARSGRVKGSIAQRLEHHHHHH”, the “soluble on expression in E. coli” value was “soluble”.
For “MSLRTILVTGASGFVGGALCRQLATLGSFAIRAASRDLGGASVAGIQAVTVADLSATTDWARALSGVDLVVHAAARVHVMKETASDSLAEFRRVNVDGTLNLARQAAAAGVRRFIFISSIKVNGESSQPGQPLRADDSPAPQDAYGVSKHEAEQGLRQLAAATGMEVVVIRPVLVYGPGVKANFHSMMRWLQRGVPLPFGAVCNRRSLVSLANLVDLVVTCIDHPRAANQTFLASDGDDVSLTQLLRALGLALGRPARLLPVPAGLLRGAVLLIGRRDLAQRLFGTLQVDIEKNRQLLGWYPPCTLEQGLNMTARSFLGARREGHHHHHH”, the “soluble on expression in E. coli” value is “soluble”.
As to “MGSDKIHHHHHHMNETSSYTIEEVAGLLKVSKLTVYDLIKKGVLPAYRVGRQMRVDEEDLKQYKTNMRMSQPIAAKEAPKQVQEAEPDGRPNVMISGQDISMDILSKHLENAIQETPLRKYKGSLNSLIDMYQGKCDIVSLHLYDAETGQYNAPYVKRILTGEPFCLINVVLRKAGLYVQKGNPKNIQGWKDLKRADIRIINREKGSGARVLLDEQLGLLGVNPADVVGYGDIVTDHYAAASQVSSGQADAGIGAQHAAHMGSVDFIPLIDEQYDIVVLKKNEQLLKAVKEILNSEDYKANLSHLNGYETKLTGKVILET”, the “soluble on expression in E. coli” value is on record as “not soluble”.
With “MGMIIMVGDGMGPAYTSAYRYFQDNPDTEEIEQTVFDRLLVGMASTYPARESGYVTDSAASATALATGFKSYNGAIAVDINKRPLTTIMQMAKARGMSTGVAVTAQVNHATPAAFLTHNESRKNYEAIAADMLKSDADVILGGGRKYFSEALVSQFSAKGYQHITELAQLDSITQPKVLGLFAEVQLPWVIDDTDANTLSKLTQKSLDLLSQNEKGFVLLVEGSLIDWAGHNNDIATAMAEMQGFANAIEVVEQYIRQHPDTLLVVTADHNTGGLSIGANGEYQWDTKLPKGISASPASIATHAIAADDWQAGVNQQLGFDVNSTELQQLTNARMQGKSTLEVALKKIIDTRSYTGWTTSGHTGVDVQVFAMGPAADLFKGNQDNTHIAEKMMSLLPKVN”, the “soluble on expression in E. coli” value was “soluble”.
In the case of “EIRLSNTQQTYAFLKKRLRDYKNETFAALFLDNQHRIIAYEELFSGTINTATVYPRPIVERVLQLNAAALILAHNHPSGLSDASQQDLAITERIRDALDLVDARLLDHIVIGDNEVYSIFAENKWVCN”, the “soluble on expression in E. coli” value is reported as “not soluble”.
As to “MGSDKIHHHHHHMMKMERKNVWHHRKKEEIEAFSKEYMEFMSKAKTERMTVKEIKRILDESGFVPLEDFAGDPMNMTVYAVNRGKAIAAFRVVDDLKRGLNLVVAHIDSPRLDFKPNPLIEDEQIALFKTHYYGGIKKYHWLSIPLEIHGVLFKNDGTEIEIHIGDKPEDPVFTIPDLLPHLDKEDAKISEKFKGENLMLIAGTIPLSGEEKEAVKTNVLKILNEMYGITEEDFVSGEIEVVPAFSPREVGMDRSLIGAYGQDDRICAYTALRALLSANPEKSIGVIFFDKEEIGSDGNTGAKARFYLKALRQILKMQGAKDSEFVLDEVLENTSVISGDVCAAVNPPYKDVHDLHNAPKLGYGVALVKYTGARGKYSTNDAHAEFVARVRKVLNEQGVIWQVATLGKVDQGGGGTIAKFFAERGSDVIDMGPALLGMHSPFEISSKADLFETYVAYRSLMEKL”, the “soluble on expression in E. coli” value is recorded as “not soluble”.
Take “MMLCFQEVALNGGNILSKFTERLLTILYPPICPGCKQRVSAYGTICSECWKDLQFITKPYCPVMGVPFVYDMGDGFLSGEALQNSLPFSRVRSVIVHKGVAQSLVTRLKYGDHVELASFMANWMVSAGREIVDDCDIIISVPLHFRRFLKRRYNQSAELARYIARVQKKEFKPGWLVRCRHTRPQVNLSARERKLNVLNAFEVPRKVKKYLKGRSILLIDDVFTTGATVTAAAATLKRAGARQVDVLTFSRVLKEASIFPNS”: the “soluble on expression in E. coli” value was “not soluble”.
With “QILVVRNQVIFPYNGFELDVGRERSKKLIKALKNLKTKRLVLVTQKNSDQLNPEFDDIYHCGTLCDIDEIIEVPSEDGKTADYKIKGKGLQRVAITSFSDADLTKYDHHFLNSTLTENKALDKLLERIFPDKEDFAEILDSLNSFLELQELKKLSKVPKDIKRYDIITFKLASLIFKDITLQQAILEENDIEKRLQKIIGS”, the “soluble on expression in E. coli” value is “soluble”.
With “MGSDKIHHHHHHMAPLLFRQILDLEAEAIQRAAERADAEAFANATQLIANCSGKVVLSGVGKSGIIARKITATLLSIGTLSAFLHPCDALHGDLGIVTEQDVVVMLSNSGETDELLAMLPHLQRRQVPIIAIVGNMRSTLARVAAAVLDASVDREACPLNLAPTASTTVALAIGDALAAQVMDYRSVTSEQFAFNHPAGRLGKRLTLKVVDVMHQGEELPLLPPEARFVEVVTAISRGGLGAVPIVEADGRLLGLITDGDLRRLLEQTSPAKLDQITAAEFMTPQPIAVEGDLLAYDALHLMENRPSQISVLPVVDAAQRCLGLVRIHDLIRSGI”, the “soluble on expression in E. coli” value is on record as “not soluble”.
Next, “MLDHNRLEEFIEQIRLTPAIWKNREFDISREHMNEIWAHFGHTFDISPKEAEMQWEYLIRLHRFMNRNASLEQFRIEVPSLEDDFTPADTLVAESLAIFLKPTLDELLLISKPSETSV”: “not soluble”; “MRLLHTMLRVGDLQRSIDFYTKVLGMKLLRTSENPEYKYSLAFVGYGPETEEAVIELTYNWGVDKYELGTAYGHIALSVDNAAEACEKIRQNGGNVTREAGPVKGGTTVIAFVEDPDGYKIELIEEKDAGRGLGN”: “soluble”; “MDKYHSMKELQNETIENEDWEIITEDRDSNVTILAIHGGGIEPATTELARVIANDGQFNYFAFNGMRTKGNNELHVTSINYDNDIAMDLVKTSESAITIHGCLGEDEIAYIGGKDNLLKERIVEELSQIGIEVKEAPSHMSGTQDNNIVNCTKNGVGVQIELTSSLRKSLFKNNKFNRKSRMDESNWDDKMYDFGQAINSAINLEHHHHHH”: “soluble”.
Next, “MGHHHHHHSHMVTPVTWMDNPIEVYVNDSVWVPGPTDDHCPAKPEEEGMMINISIGYHYPPICLGRAPGCLMPAVQNWLVEVPTVSPISRFTYHMVSGMSLRPRVNYLQDFSYQRSLKFRPKGKPCPKEIPKGSKNTEVLVWEECVANSAVILQNSEFGTIID”: “not soluble”; “SNAMAWVVNKQSTQEELANRFRALVEANEILQIPGAHDAMAALVARNTGFLALYLSGAAYTASKGLPDLGIVTSTEVAERARDLVRATDLPVLVDIDTGFGGVLNVARTAVEMVEAKVAAVQIEDQQLPKKCGHLNGKKLVTTEELVQKIKAIKEVAPSLYIVARTDARGVEGLDEAIERANAYVKAGADAIFPEALQSEEEFRLFNSKVNAPLLANMTEFGKTPYYSAEEFANMGFQMVIYPVTSLRVAAKAYENVFTLIKETGSQKDALSNMQTRSELYETISYHDFEELDTGIAKTVLSEDQ”: “soluble”; “MAHHHHHHMVMYDPAAPNNYRDVKVMWWKRAREDERKNDISRSLAAAAEAGSSPFDMPDMMRMAPRDELAYDILGGSGDTMSLHLSAEELHQRRVRQSAALGITTAMNLEREELEAAHKARVAAGMDRRGRIGQKLGKLMSVAATRENATKTNTTSDHVGDGINTSAGEMTPATTMATSTTTSLPGITAPLVFQRSELAAGGYVVREDVGALEKRKTHYGKPSSTILIRFVRDGPPVEVFDDTSNKNVGSGTLRNAFLENIQDLCGQCGVVRSLRYMVLDDGKRAALRARLENEREEVSAASADVETRLAREMIRVLVRFDTVANAFKALEMLQQRHGSNWDVCFFSTQLFDVGALGPAEGESLCCA”: “not soluble”.
